# Substitutions are numbered along the chain they refer to. Numbers in names are those of the source.
# B1: CE115HA000 A99K one-arm antibody (antibody, human IgG1, kappa, L234A L235A, N297A, name in Kabat numbering)
# heavy: QVQLVESGGGVVQPGRSLRLSCAASGFTFSNAWMHWVRQAPGKGLEWVAQIKAKSNNYATYYAESVKGRFTISRDDSKNSLYLQMNSLKTEDTAVYYCRYVHYGKYYGVDAWGQGTTVTVSSASTKGPSVFPLAPSSKSTSGGTAALGCLVKDYFPEPVTVSWNSGALTSGVHTFPAVLQSSGLYSLSSVVTVPSSSLGTQTYICNVNHKPSNTKVDKKVEPKSCDKTHTCPPCPAPEAAGGPSVFLFPPKPKDTLMISRTPEVTCVVVDVSHEDPEVKFNWYVDGVEVHNAKTKPREEQYASTYRVVSVLTVLHQDWLNGKEYKCKVSNKALPAPIEKTISKAKGQPREPQVYTLPPSRCELTKNQVSLSCAVKGFYPSDIAVEWESNGQPENNYKTTPPVLDSDGSFFLVSKLTVDKSRWQQGNVFSCSVMHEALHNHYTQKSLSLSPDYKDDDDK
# chain: EPKSSDKTHTCPPCPAPELLGGPSVFLFPPKPKDTLMISRTPEVTCVVVDVSHEDPEVKFNWYVDGVEVHNAKTKPREEQYNSTYRVVSVLTVLHQDWLNGKEYKCKVSNKALPAPIEKTISKAKGQPREPQVCTLPPSRDELTKNQVSLWCLVKGFYPSDIAVEWESNGQPENNYKTTPPVLDSDGSFFLYSKLTVDKSRWQQGNVFSCSVMHEALHNRYTQKSLSLSP
# light: DIVMTQSPLSLPVTPGEPASISCRSSQSLVHSNRNTYLHWYQQKPGQAPRLLIYKVSNRFSGVPDRFSGSGSGTDFTLKISRVEAEDVGVYYCGQGTQVPYTFGQGTKLEIKRTVAAPSVFIFPPSDEQLKSGTASVVCLLNNFYPREAKVQWKVDNALQSGNSQESVTEQDSKDSTYSLSSTLTLSKADYEKHKVYACEVTHQGLSSPVTKSFNRGEC
# notes: one-arm antibody
# B2: CE115HA000 A99L one-arm antibody (antibody, human IgG1, kappa, L234A L235A, N297A, name in Kabat numbering)
# heavy: B1 heavy with K105L
# chain: B1 chain
# light: B1 light
# notes: one-arm antibody
# B3: CE115HA000 A99Q one-arm antibody (antibody, human IgG1, kappa, L234A L235A, N297A, name in Kabat numbering)
# heavy: B1 heavy with K105Q
# chain: B1 chain
# light: B1 light
# notes: one-arm antibody
# B4: CE115HA000 A99S one-arm antibody (antibody, human IgG1, kappa, L234A L235A, N297A, name in Kabat numbering)
# heavy: B1 heavy with K105S
# chain: B1 chain
# light: B1 light
# notes: one-arm antibody
# B5: CE115HA000 A99T one-arm antibody (antibody, human IgG1, kappa, L234A L235A, N297A, name in Kabat numbering)
# heavy: B1 heavy with K105T
# chain: B1 chain
# light: B1 light
# notes: one-arm antibody
# B6: CE115HA000 A99Y one-arm antibody (antibody, human IgG1, kappa, L234A L235A, N297A, name in Kabat numbering)
# heavy: B1 heavy with K105Y
# chain: B1 chain
# light: B1 light
# notes: one-arm antibody
# B7: CE115HA000 A102I one-arm antibody (antibody, human IgG1, kappa, L234A L235A, N297A, name in Kabat numbering)
# heavy: B1 heavy with K105A, A111I
# chain: B1 chain
# light: B1 light
# notes: one-arm antibody
# B8: CE115HA000 A102P one-arm antibody (antibody, human IgG1, kappa, L234A L235A, N297A, name in Kabat numbering)
# heavy: B1 heavy with K105A, A111P
# chain: B1 chain
# light: B1 light
# notes: one-arm antibody
# B9: CE115HA000 A102V one-arm antibody (antibody, human IgG1, kappa, L234A L235A, N297A, name in Kabat numbering)
# heavy: B1 heavy with K105A, A111V
# chain: B1 chain
# light: B1 light
# notes: one-arm antibody
# B10: CE115HA000 A102Y one-arm antibody (antibody, human IgG1, kappa, L234A L235A, N297A, name in Kabat numbering)
# heavy: B1 heavy with K105A, A111Y
# chain: B1 chain
# light: B1 light
# notes: one-arm antibody
# B11: CE115HA000 D72A one-arm antibody (antibody, human IgG1, kappa, L234A L235A, N297A, name in Kabat numbering)
# heavy: B1 heavy with D75A, K105A
# chain: B1 chain
# light: B1 light
# notes: one-arm antibody
# B12: CE115HA000 D72E one-arm antibody (antibody, human IgG1, kappa, L234A L235A, N297A, name in Kabat numbering)
# heavy: B1 heavy with D75E, K105A
# chain: B1 chain
# light: B1 light
# notes: one-arm antibody
# B13: CE115HA000 D72V one-arm antibody (antibody, human IgG1, kappa, L234A L235A, N297A, name in Kabat numbering)
# heavy: B1 heavy with D75V, K105A
# chain: B1 chain
# light: B1 light
# notes: one-arm antibody
# B14: CE115HA000 D73A one-arm antibody (antibody, human IgG1, kappa, L234A L235A, N297A, name in Kabat numbering)
# heavy: B1 heavy with D76A, K105A
# chain: B1 chain
# light: B1 light
# notes: one-arm antibody
# B15: CE115HA000 D73E one-arm antibody (antibody, human IgG1, kappa, L234A L235A, N297A, name in Kabat numbering)
# heavy: B1 heavy with D76E, K105A
# chain: B1 chain
# light: B1 light
# notes: one-arm antibody
# B16: CE115HA000 D73G one-arm antibody (antibody, human IgG1, kappa, L234A L235A, N297A, name in Kabat numbering)
# heavy: B1 heavy with D76G, K105A
# chain: B1 chain
# light: B1 light
# notes: one-arm antibody
# B17: CE115HA000 D73K one-arm antibody (antibody, human IgG1, kappa, L234A L235A, N297A, name in Kabat numbering)
# heavy: B1 heavy with D76K, K105A
# chain: B1 chain
# light: B1 light
# notes: one-arm antibody
# B18: CE115HA000 D73N one-arm antibody (antibody, human IgG1, kappa, L234A L235A, N297A, name in Kabat numbering)
# heavy: B1 heavy with D76N, K105A
# chain: B1 chain
# light: B1 light
# notes: one-arm antibody
# B19: CE115HA000 D73R one-arm antibody (antibody, human IgG1, kappa, L234A L235A, N297A, name in Kabat numbering)
# heavy: B1 heavy with D76R, K105A
# chain: B1 chain
# light: B1 light
# notes: one-arm antibody
# B20: CE115HA000 D73T one-arm antibody (antibody, human IgG1, kappa, L234A L235A, N297A, name in Kabat numbering)
# heavy: B1 heavy with D76T, K105A
# chain: B1 chain
# light: B1 light
# notes: one-arm antibody
# B21: CE115HA000 D101F one-arm antibody (antibody, human IgG1, kappa, L234A L235A, N297A, name in Kabat numbering)
# heavy: B1 heavy with K105A, D110F
# chain: B1 chain
# light: B1 light
# notes: one-arm antibody
# B22: CE115HA000 D101G one-arm antibody (antibody, human IgG1, kappa, L234A L235A, N297A, name in Kabat numbering)
# heavy: B1 heavy with K105A, D110G
# chain: B1 chain
# light: B1 light
# notes: one-arm antibody
# Target: T1, CD3 epsilon homodimer protein (UniProt P07766 23-126)
# T1 construct: Construct of the homodimer protein is not described; also called CD3 (CD3 epsilon)
# T1 sequence (P07766 23-126): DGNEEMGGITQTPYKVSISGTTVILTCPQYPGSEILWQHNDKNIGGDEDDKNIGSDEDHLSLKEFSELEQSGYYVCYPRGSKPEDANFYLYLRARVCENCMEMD
# Test: SPR (Biacore T200), CD3 epsilon homodimer on CM4 chip, one-arm antibody as analyte; ratio to unaltered CE115HA000;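 note: surface plasmon resonance run at 25 °C with HBS-EP+ as running buffer, CD3 epsilon homodimer attached by amine coupling, antibody passed over as analyte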
row,Binder,KD ratio (KD value of CE115HA000/KD value of the altered form)
1,B1,1.4
2,B2,1
3,B3,0.85
4,B4,0.76
5,B5,0.93
6,B6,1.25
7,B7,1.29
8,B8,3.51
9,B9,1.27
10,B10,1
11,B11,1.19
12,B12,0.73
13,B13,1.17
14,B14,0.73
15,B15,0.56
16,B16,0.78
17,B17,0.74
18,B18,0.7
19,B19,0.79
20,B20,0.78
21,B21,0.73
22,B22,3.16

# Source: patent publication US20240270846A1 (published 2024)
